# In patent US20090023646A1, “GHRH analogues” (Centre Hospitalier de L'Universite de Montreal (CHUM), priority 2002, published 2009):
# Read-outs that look alike come from different tables or passages of the source. Square brackets hold non-standard residues; d marks the D form. Ends that are not written are not given here.
# T1: rat GHRH receptor (rat, UniProt Q02644 23-464)
# T1 construct: whole, on cells; Native tissue membrane preparation; In the in vivo study it is the receptor on rat pituitary somatotrophs; also called rat pituitary GHRH receptor
# T1 sequence (looked up): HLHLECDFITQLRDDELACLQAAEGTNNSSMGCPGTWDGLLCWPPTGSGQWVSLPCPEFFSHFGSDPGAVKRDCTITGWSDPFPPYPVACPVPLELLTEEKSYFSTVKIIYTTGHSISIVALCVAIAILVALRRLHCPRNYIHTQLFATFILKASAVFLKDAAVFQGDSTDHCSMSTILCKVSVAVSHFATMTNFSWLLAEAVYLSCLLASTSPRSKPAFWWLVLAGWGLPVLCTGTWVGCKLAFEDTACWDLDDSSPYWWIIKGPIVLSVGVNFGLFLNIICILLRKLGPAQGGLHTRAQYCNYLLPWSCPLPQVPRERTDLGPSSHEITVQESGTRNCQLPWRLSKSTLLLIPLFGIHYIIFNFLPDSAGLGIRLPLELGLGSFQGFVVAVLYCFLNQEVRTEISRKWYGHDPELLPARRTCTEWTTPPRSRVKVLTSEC
# T2: human GHRH receptor (human, UniProt Q02643 23-423)
# T2 construct: whole, on cells; Assayed in BHK cell membrane preparations (25 ug protein per tube), not on intact cells; also called hGHRH-R; hGHRH receptor
# T2 sequence (looked up): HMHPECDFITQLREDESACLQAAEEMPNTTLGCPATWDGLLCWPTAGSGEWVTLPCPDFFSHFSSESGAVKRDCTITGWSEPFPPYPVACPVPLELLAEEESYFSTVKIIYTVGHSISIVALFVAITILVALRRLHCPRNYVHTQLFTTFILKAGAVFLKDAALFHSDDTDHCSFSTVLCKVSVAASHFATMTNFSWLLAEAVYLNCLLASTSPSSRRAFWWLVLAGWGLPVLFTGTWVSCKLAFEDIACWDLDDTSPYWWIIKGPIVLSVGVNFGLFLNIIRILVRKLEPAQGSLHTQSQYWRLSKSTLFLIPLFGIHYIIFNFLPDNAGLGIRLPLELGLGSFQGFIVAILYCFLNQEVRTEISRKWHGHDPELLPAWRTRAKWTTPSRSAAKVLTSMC
# Tests used:
# rat GHRH receptor = molecular target: T1, rat GHRH receptor; experiment: competition with [125I-Tyr10]hGHRH(1-44)-NH2, rat anterior pituitary membrane preparations
# human GHRH receptor [1] = molecular target: T2, human GHRH receptor; experiment: competition with [125I-Tyr10]hGHRH(1-44)NH2, BHK cell membrane preparations expressing the human GHRH receptor
# Description: (§1) Incubation was carried out at equilibrium (23° C., 60 min) and stopped by centrifugation (12,000 g, 5 min, at 4° C.). The radioactivity content in pellets was determined by gamma counting. […] The Ligand computerized program was used to analyze competition curves of GHRH analogues reported in Tables 2 and 3 and to determine their IC₅₀ (Gaudreau P. et al. (1992) J Med Chem, 35: 1864-1869).
# (§2) IC₅₀ is the concentration of peptide inhibiting 50% of ¹²⁵I-GHRH specific binding as determined by the LIGAND program for analysis of competition curves.
# human GHRH receptor [2] = molecular target: T2, human GHRH receptor; experiment: as above; remark: listed apart in the source
# Description: as §1, §2
# human GHRH receptor [3] = molecular target: T2, human GHRH receptor; experiment: competition with [125I-Tyr10]hGHRH(1-44)NH2, BHK cell membrane preparations expressing the human GHRH receptor (reference peptide; its IC50 is not given)
# Description: as §1, §2
Binder,relative binding affinity in rat anterior pituitary (compared to hGHRH(1-29)-NH2) (rat GHRH receptor),IC50 (human GHRH receptor [1]) [nM],IC50 (human GHRH receptor [2]) [nM],relative binding affinity (R1) in comparison with hGHRH(1-29)NH2 (human GHRH receptor [2]),binding result (human GHRH receptor [3])
"Y[dA]DAIFTNS[dY]RKVL[dA]QLSARKKLQDIMSR-NH2 (also: acetate salt, also called GHRH analogue #5; human GHRH analogue #5) [[D-Ala2, D-Tyr10, D-Ala15, Lys22] hGHRH(1-29)-NH2]",1.04 fold against hGHRH(1-29)-NH2,0.0012,0.006,939 ratio IC50 of hGHRH(1-29)-NH2 / IC50 analogue,–
YADAIFTNSYRKVLGQLSARKLLQDIMSR-NH2 (also called hGHRH(1-29)NH2; hGHRH(1-29)-NH2) [human GHRH(1-29)NH2],–,–,–,–,binds
"Y[dA]DAIFTAS[dY]RKVLAQLSAR[dK]KLQDIMSR-NH2 (N-terminus assumed; SMILES CC[C@H](C)[C@H](NC(=O)[C@H](C)NC(=O)[C@H](CC(=O)O)NC(=O)[C@@H](C)NC(=O)[C@@H](N)Cc1ccc(O)cc1)C(=O)N[C@@H](Cc1ccccc1)C(=O)N[C@H](C(=O)N[C@@H](C)C(=O)N[C@@H](CO)C(=O)N[C@H](Cc1ccc(O)cc1)C(=O)N[C@@H](CCCNC(=N)N)C(=O)N[C@@H](CCCCN)C(=O)N[C@H](C(=O)N[C@@H](CC(C)C)C(=O)N[C@@H](C)C(=O)N[C@@H](CCC(N)=O)C(=O)N[C@@H](CC(C)C)C(=O)N[C@@H](CO)C(=O)N[C@@H](C)C(=O)N[C@@H](CCCNC(=N)N)C(=O)N[C@H](CCCCN)C(=O)N[C@@H](CCCCN)C(=O)N[C@@H](CC(C)C)C(=O)N[C@@H](CCC(N)=O)C(=O)N[C@@H](CC(=O)O)C(=O)N[C@H](C(=O)N[C@@H](CCSC)C(=O)N[C@@H](CO)C(=O)N[C@@H](CCCNC(=N)N)C(N)=O)[C@@H](C)CC)C(C)C)[C@@H](C)O, Synthetic 29-residue amide; also called GHRH analogue #4; No. 4) [[D-Ala2, Ala8, D-Tyr10, Ala15, D-Lys21, Lys22] hGHRH(1-29)-NH2]",5 fold against hGHRH(1-29)-NH2,–,37,0.05 ratio IC50 of hGHRH(1-29)-NH2 / IC50 analogue,–
"Y[dA]DAIFTASYRKVLAQLSARKKLQDIMSR-NH2 (N-terminus assumed; SMILES CC[C@H](C)[C@H](NC(=O)[C@H](C)NC(=O)[C@H](CC(=O)O)NC(=O)[C@@H](C)NC(=O)[C@@H](N)Cc1ccc(O)cc1)C(=O)N[C@@H](Cc1ccccc1)C(=O)N[C@H](C(=O)N[C@@H](C)C(=O)N[C@@H](CO)C(=O)N[C@@H](Cc1ccc(O)cc1)C(=O)N[C@@H](CCCNC(=N)N)C(=O)N[C@@H](CCCCN)C(=O)N[C@H](C(=O)N[C@@H](CC(C)C)C(=O)N[C@@H](C)C(=O)N[C@@H](CCC(N)=O)C(=O)N[C@@H](CC(C)C)C(=O)N[C@@H](CO)C(=O)N[C@@H](C)C(=O)N[C@@H](CCCNC(=N)N)C(=O)N[C@@H](CCCCN)C(=O)N[C@@H](CCCCN)C(=O)N[C@@H](CC(C)C)C(=O)N[C@@H](CCC(N)=O)C(=O)N[C@@H](CC(=O)O)C(=O)N[C@H](C(=O)N[C@@H](CCSC)C(=O)N[C@@H](CO)C(=O)N[C@@H](CCCNC(=N)N)C(N)=O)[C@@H](C)CC)C(C)C)[C@@H](C)O, Synthetic 29-residue amide; also called GHRH analogue #1; No. 1) [[D-Ala2, Ala8, Ala15, Lys22] hGHRH(1-29)-NH2]",13.3 fold against hGHRH(1-29)-NH2,–,0.033,499 ratio IC50 of hGHRH(1-29)-NH2 / IC50 analogue,–
"YADAIFTAAYRKVLAQLSARKALQDIMSR-NH2 (Synthetic 29-residue amide; also called GHRH analogue #2; No. 2) [[Ala8, Ala9, Ala15, Ala22] hGHRH(1-29)-NH2]",7.74 fold against hGHRH(1-29)-NH2,–,0.77,3.7 ratio IC50 of hGHRH(1-29)-NH2 / IC50 analogue,–
"Y[dA]DAIFTNS[dY]RKVLGQLSARKKLQDIMSR-NH2 (N-terminus assumed; SMILES CC[C@H](C)[C@H](NC(=O)[C@H](C)NC(=O)[C@H](CC(=O)O)NC(=O)[C@@H](C)NC(=O)[C@@H](N)Cc1ccc(O)cc1)C(=O)N[C@@H](Cc1ccccc1)C(=O)N[C@H](C(=O)N[C@@H](CC(N)=O)C(=O)N[C@@H](CO)C(=O)N[C@H](Cc1ccc(O)cc1)C(=O)N[C@@H](CCCNC(=N)N)C(=O)N[C@@H](CCCCN)C(=O)N[C@H](C(=O)N[C@@H](CC(C)C)C(=O)NCC(=O)N[C@@H](CCC(N)=O)C(=O)N[C@@H](CC(C)C)C(=O)N[C@@H](CO)C(=O)N[C@@H](C)C(=O)N[C@@H](CCCNC(=N)N)C(=O)N[C@@H](CCCCN)C(=O)N[C@@H](CCCCN)C(=O)N[C@@H](CC(C)C)C(=O)N[C@@H](CCC(N)=O)C(=O)N[C@@H](CC(=O)O)C(=O)N[C@H](C(=O)N[C@@H](CCSC)C(=O)N[C@@H](CO)C(=O)N[C@@H](CCCNC(=N)N)C(N)=O)[C@@H](C)CC)C(C)C)[C@@H](C)O, Synthetic 29-residue amide; also called GHRH analogue #3; No. 3) [[D-Ala2, D-Tyr10, Lys22] hGHRH(1-29)-NH2]",4.9 fold against hGHRH(1-29)-NH2,–,0.0063,239 ratio IC50 of hGHRH(1-29)-NH2 / IC50 analogue,–
